Laboratory results from the supplement of paper PMC9170038.

Tested on: K4 kissing-loop RNA reporter
Experiment: apparent KD of K4 kissing-loop reporter; higher = weaker reporter binding
Conditions: Eterna round: R107
Method: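 RNA-MaP round R107: designed RNA switches with theophylline, tryptophan, arginine or FMN aptamers are transcribed on-chip within common flanks. They are titrated with a labelled K4 kissing-loop RNA reporter in RNA-MaP buffer (100 mM Tris pH 7.5, 80 mM KCl, 4 mM MgCl2), without ligand or with the indicated ligand. Median apparent KD per design.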

[1] = input ligand: theophylline 20 uM
[2] = input ligand: tryptophan 2.4 mM
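Also: bound reporter read as fluorescence of individual clusters on recovered sequencing chips by microscopy, with normalized cluster intensities fitted with a binding model.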

| Sequence | apparent KD of K4 kissing-loop reporter (input ligand: FMN 200 uM) [nM] | apparent KD of K4 kissing-loop reporter (input ligand: arginine 13.2 mM) [nM] | apparent KD of K4 kissing-loop reporter (input ligand: none) [nM] | apparent KD of K4 kissing-loop reporter [1] [nM] | apparent KD of K4 kissing-loop reporter [2] [nM] |
| --- | --- | --- | --- | --- | --- |
| GGCGGCCGCGCGCAAGCGCGGCCGGCCGAUACCAGCGCGACGGCGCGCCCUUGGCAGCGGCGCCGAGUGAUGUUCGGCCUGCCGG [#2 Same State - Theophylline A Attempt #16 (HarryS)] | 376 | 447 | 585 | 454 | 482 |
| GGCUUACUAGUGAUGUUAGUAUUUUCUGAAGGAGCGCGUGAAAACGCAGGUAGGUCGCAGAACCUUGCCAACUAUUUUAGUUGCC [Ex Arginine A K4 28] | 144 | 157 | 115 | 136 | 104 |
| GGGAAGGGACACAAGGAGGAACGAAGGGAAGGAGCGCCGGAGGAGGCAGGUAGGUCGCCCAACCAGUGAUGUUGGAAUUUAAUCC [Default title] | 242 | 125 | 287 | 114 | 196 |
| GGGAGGAGUGGUGUUGAUUAGGGAGCGGAAGGAGCGCCGAGGAAGGCAGGUAGGUCGCCGGAUUAUAGUGAUGUUAUGAAGAGGG [ExArg.J] | 663 | 716 | 679 | 1010 | 577 |
| GGGAGUAUUGCGGCCGCCACUGAGGAAGAAGAAGGCCAUAGUGAUGUUAUGGAGGAAAGGAAGAACAGGACCGGGCAGUAGAUUU [#22 K4 Tryptophan B Same State] | 154 | 157 | 175 | 188 | 127 |
| GGGAGUGAUGUUCCCGCGUUGACGGUCCUCCGAGGACCGGUACGGCCGCCACUCGAAACCCAGUGAUGUUGGGACUCACCGUACU [Exclusion Tryptophan A GF 11] | 511 | 504 | 511 | 620 | 435 |
| GGGAUAGGAUCAGUGAUGUUGGUCCCAGAUACCAGACAAAGUCACGUCCCUUGGCAGCUGAUGAUCGCUGACGACCGGCCUCCAA [theeternabot_sameState_KL_Theo_A_7] | 259 | 218 | 262 | 219 | 256 |
| GGGAUGAUGUCGGCCGCCACUGACUGUGUCCAGUGAUGUUGGGAGUGUACGGAAGUUCCAUAUAUCAGGACCGGGACCUCGCUCC [theeternabot_sameState_KL_Trp_B_44] | 866 | 487 | 938 | 817 | 616 |
| GGGAUGUAGUGAUGUUAUAUUAGAUGUAGACGAGGACCGGUACGGCCGCCACUCGUGAUGGCUGCUAGCACGUUUCGAUGUUUGC [ExTryptoA.Cr] | 399 | 426 | 428 | 462 | 309 |
| GGGCGUGGCGCGGCCGCCACUGGGCCUGGGUGCUCGCUGAGUGAUGUUCGUCGGCGGUUGGGUCGUAGGACCGGGUGCUGGUUGG [BDazzled - #9 SS Tryptophan B] | 771 | 347 | 607 | 447 | 575 |
| GGUAGCAUGGCGGCCGCCACUAAAACUGGAUCGGAAACGAUCCAGUAAUUUCGAGUGAUGUUCGUUAGGACCGGGCCAUGCUACC | 362 | 254 | 283 | 257 | 236 |
| GGUAGCAUGGCGGCCGCCACUCAUGUAGAUACCUACAUAGUAAGCAGUGAUGUUGCUUUGUGGUUGAGGACCGGGCCAUGCUACC | 167 | 140 | 151 | 161 | 255 |
| GGUAGCUAGGCAGGAUAUAGCUAGUGGAGUGAUGUUCCACCAUACACGAGUGAUGUUCGUAACCUGCUAGAAGGGCCUAGCUACC | 114 | 125 | 144 | 135 | 138 |
| GGUCGAGUGAUGUUCGAUGUUAUGCAUUCAGAGGAUAUAGGAUUAGCUAGAAGGCUGAAUCAAUCUUCGAGUGAUGUUCGAGGAU [Same State FMN A GF 9] | 133 | 108 | 115 | 123 | 112 |
| GGUGUGCCAAGUGAUGUUUGGCGUUCUCACCGAGGACCGGUACGGCCGCCACUCGUUAACUGACCAAGUAUCUUUACCUCGGAGA [theeternabot_sameState_KL_Trp_A_8] | 168 | 141 | 159 | 187 | 156 |
| GGUGUUGUUUGUGCCGCCUUCCUCGUUCCUCGAGGACCGGUACGGCCGCCACUCGAGUGAUGUUUGGGUAGCGAUCCCUGCUAGU [Bdazzled - #12 Exc. Tryptophan A] | 877 | 696 | 1000 | 822 | 892 |
| GGUUCCUCAGUGAUGUUGAGGUGACCUCGGCAGGAUAUAGGCAUUACUAGAAGGGCCAAAAGAACCCUGUGUAGCGACACAGGGA [Beerma] | 150 | 269 | 329 | 279 | 299 |
| GGUUCUCUGUUAGGAUAUAGAUUAGAGUGAUGUUCUAACGGCCCGGGCCCGAAAGGGCCCGGGCCGCUAGAAGGAACGGAGUUGG [#2 Same State - FMN A Attempt #1 (HarryS)] | 399 | 149 | 1100 | 538 | 444 |
| GUACACUCUCGAGUGAUGUUCGGUAAUAGAGAGGAUAUCGCUUUUGCGAGAAGGCUCUGAAUGAGGAAACUCGUUCUGUGUGUAC [FMN A 20] | 906 | 686 | 1160 | 858 | 894 |
| GUACGCUGCUGAGUGAUGUUCAGCAAUCGCUAGGAUAUCGCUUUUGCGAGAAGGAGCGCAAUGAGGAAACUCGUUGUUAGUGUAC [FMN A 28] | 166 | 198 | 255 | 204 | 207 |
| GUAGACGUGCCUUCAGUGAUGUUGAAGGAUACCAGAUGUUACCACAUCCCUUGGCAGCCUUGGGAUAACAGUGAGUCGGUAUAUG [Ontierso] | 255 | 200 | 297 | 253 | 247 |
